Results from patent US20200340060A1, “COMPOSITIONS AND METHODS FOR IDENTIFYING AND TREATING LIVER DISEASES AND MONITORING TREATMENT OUTCOMES” (Gilead Sciences, Inc., priority 2017, published 2020).

System: liver fibrosis in NASH subjects
Experiment: Simtuzumab clinical studies (SIM 0105/0106) in NASH, CRN fibrosis stage change at week 48
Format: in vivo, human
Conditions: SIM study samples

B1: simtuzumab (antibody, chains of the INN, looked up, V domains shown)
VH: QVQLVQSGAEVKKPGASVKVSCKASGYAFTYYLIEWVRQAPGQGLEWIGVINPGSGGTNYNEKFKGRATITADKSTSTAYMELSSLRSEDTAVYFCARNWMNFDYWGQGTTVTVSS
VL: DIVMTQTPLSLSVTPGQPASISCRSSKSLLHSNGNTYLYWFLQKPGQSPQFLIYRMSNLASGVPDRFSGSGSGTDFTLKISRVEAEDVGVYYCMQHLEYPYTFGGGTKVEIK
efficacy on fibrosis stage change: lack of efficacy
